Molecular target: T1, NCK2, aa 1-380, Activation Domain (AD) fusion (human, UniProt O43639 1-380)
T1 construct: range 1-380; Also used for the sentences that name NCK2 as a partner of the cytoplasmic domain
Experiment: yeast two-hybrid matrix mating assay, beta-gal read-out
Procedure: Matrix Mating Haploid cells for the PathCalling matrix mating assay are grown up individually in 384 well plates using selective liquid media. After 1-2 days, the mating is done entirely in a nutrient rich media. The resulting diploid cells are then selected using a selective liquid media. The optical density (O.D.) of the diploid cells is measured using a spectrophotometer to measure and the cells are then transferred to a fresh plate for a Beta-gal assay. This assay is performed to determine if there is an interaction between the two proteins being tested. The Beta-gal assay is performed as follows:
2. The β-gal buffer is made using the following (per 384 well plate): 7.1 ml Sigma water, 7.5 ml 4X Z-buffer, 0.3 ml 20% IGEPAL, 30 mg CPRG, 75 μl Lyticase (10,000 U/ml) and 3.30 μl of β-gal buffer is added to each well of the plate made in step 1 using a multi-drop 384.

T1 sequence (O43639 whole entry, the tested form may be a part): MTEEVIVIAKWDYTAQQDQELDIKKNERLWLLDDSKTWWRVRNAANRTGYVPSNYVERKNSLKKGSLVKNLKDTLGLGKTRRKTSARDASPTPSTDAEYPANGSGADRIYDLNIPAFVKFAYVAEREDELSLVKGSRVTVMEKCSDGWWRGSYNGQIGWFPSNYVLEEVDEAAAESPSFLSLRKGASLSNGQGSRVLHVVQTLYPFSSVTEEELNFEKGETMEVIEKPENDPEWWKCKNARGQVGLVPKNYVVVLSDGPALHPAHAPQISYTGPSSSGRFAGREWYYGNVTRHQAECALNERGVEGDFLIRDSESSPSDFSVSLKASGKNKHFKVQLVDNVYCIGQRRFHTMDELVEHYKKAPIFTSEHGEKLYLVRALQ

binding result | Binder
binds | CG51896-10, intracellular domain, aa 805-1047, Binding Domain (BD) fusion (other, not shown: large carriers, also called NOV2r) TKDMPPMGSPVIPTDLPLRASPSHIPSVVVLPITQQGYQHEYVDQPKMSEVAQMALEDQAATLEYKTIKEHLSSKSPNHGVNLVENLDSLPPKVPQREASLGPPGASLSQTGLSKRLEMHHSSSYGVDYKRSYPTNSLTRSHQATTLKRNNTNSSNSSHLSRNQSFGRGDNPPPAPQRVDSIQVHSSQPSGQAVTVSRQPSLNAYNSLTRSGLKRTPSLKPDVPPKPSFAPLSTSMKPNDACT
binds | CG51896-10, intracellular domain, aa 950-1047, Binding Domain (BD) fusion (other, not shown: large carriers, also called NOV2r) TLKRNNTNSSNSSHLSRNQSFGRGDNPPPAPQRVDSIQVHSSQPSGQAVTVSRQPSLNAYNSLTRSGLKRTPSLKPDVPPKPSFAPLSTSMKPNDACT
binds | CG51896-10, intracellular domain, aa 690-1047, Binding Domain (BD) fusion (other, also called NOV2r) VCDHRRKDVAVVQRKEKELTHSRRGSMSSVTKLSGLFGDTQSKDPKPEAILTPLMHNGKLATPGNTAKMLIKADQHHLDLTALPTPESTPTLQQKRKPSRGSREWERNQNLINACTKDMPPMGSPVIPTDLPLRASPSHIPSVVVLPITQQGYQHEYVDQPKMSEVAQMALEDQAATLEYKTIKEHLSSKSPNHGVNLVENLDSLPPKVPQREASLGPPGASLSQTGLSKRLEMHHSSSYGVDYKRSYPTNSLTRSHQATTLKRNNTNSSNSSHLSRNQSFGRGDNPPPAPQRVDSIQVHSSQPSGQAVTVSRQPSLNAYNSLTRSGLKRTPSLKPDVPPKPSFAPLSTSMKPNDACT

— patent US20040018977A1 (published 2004)
